What follows are sequences tested on Saccharomyces cerevisiae (assay: protein stability index of tFT-peptide fusion in wild type (PSI (0-1 scale)); higher = more stable (slower turnover)). Conditions: genetic background: wild type.
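For protein stability index of tFT-peptide fusion in deletion strain of DOA10 in this document: PSI per variant is the weighted mean of its sequencing read distribution over the sorted stability bins, counting only variants with over 10 reads summed across bins.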
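For protein stability index of tFT-peptide fusion in wild type in this document: PSI derived as read-weighted mean over the 8 sorting bins, only variants exceeding 10 total reads kept, mCherry placed adjacent to the peptide and sfGFP distal.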

In order of rising protein stability index:
1. RVTRLDAIYFRIM  0.0601
2. RVTRLDAIYFRIC  0.0626
3. RVTRLDAIYFRIN  0.0776
4. WVTRLDAIYFRI  0.161
5. RVTRWDAIYFRI  0.165
6. RVTRLFAIYFRI  0.177
7. WSLRVLLPLYFR  0.269
8. RVTRLDHIYFRI  0.281
9. VSLRVLLPLYFR  0.283
10. RVTRLDVIYFRI  0.3
11. RVTRYDAIYFRI  0.332
12. SVTRLDAIYFRI  0.363
13. RVTRLDCIYFRI  0.367
14. RVTRLDGIYFRI  0.389
15. RVTRLDAIYFRM  0.422
16. RVTRLDAIYFRC  0.431
17. RVTRLDSIYFRI  0.46
18. RVTRTDAIYFRI  0.499
19. RVTRLDAIVFRI  0.534
20. RVTRNDAIYFRI  0.552
21. RVTRLDAIYCRI  0.621
22. RVTRLDAIYFRIE  0.627
23. RVTRLDAIYFRR  0.653
24. RVTRLDAIHFRI  0.66
25. RVTRLDASYFRI  0.676
26. RVTRLDAIYFRD  0.688

These sequences were tested on Saccharomyces cerevisiae (assay: protein stability index of tFT-peptide fusion in deletion strain of DOA10 (PSI (0-1 scale)); higher = more stable (slower turnover)). Conditions: not given.
Description: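 MPS profiling in S. cerevisiae of two library types built from selected 12-aa C-degron peptides (IN1, IN2, LN1, LN3, VN2, R1-R5, W1-W3, Atg1 and Rpa12 C-termini): saturation mutagenesis libraries and C-terminal +1 capping libraries (13 aa). Each peptide is fused to the C-terminus of a sfGFP-mCherry timer, after a GGGS linker. Cells are FACS-sorted into 8 mCherry/sfGFP bins and sequenced. PSI runs from 0 (unstable) to 1 (stable), measured once in wild type and in the das1Δ or doa10Δ background.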

In order of falling protein stability index:
1. RVTRLDAIYFRD  0.72
2. RVTRLDHIYFRI  0.717
3. SVTRLDAIYFRI  0.716
4. RVTRLDASYFRI  0.715
5. RVTRLDAIYFRR  0.708
6. RVTRTDAIYFRI  0.704
7. RVTRLDSIYFRI  0.703
8. RVTRLDAIHFRI  0.7
9. RVTRLDAIYCRI  0.696
10. RVTRNDAIYFRI  0.694
11. RVTRLDAIVFRI  0.693
12. RVTRLDAIYFRIE  0.689
13. RVTRLDAIYFRM  0.674
14. RVTRLDAIYFRC  0.66
15. RVTRLDVIYFRI  0.649
16. RVTRLDCIYFRI  0.647
17. WSLRVLLPLYFR  0.636
18. WVTRLDAIYFRI  0.62
19. VSLRVLLPLYFR  0.611
20. RVTRYDAIYFRI  0.603
21. RVTRLDGIYFRI  0.567
22. RVTRLFAIYFRI  0.409
23. RVTRWDAIYFRI  0.368
24. RVTRLDAIYFRIM  0.129
25. RVTRLDAIYFRIN  0.125
26. RVTRLDAIYFRIC  0.103

Reference: the supplement of paper PMC10724198
